Laboratory results published in patent US20070099247A1.

Biological target: Streptavidin (UniProt P22629)
Assay: flow cytometry of YFP fluorescence on streptavidin coated beads after adding 1 uM biotin

Sequence of Streptavidin (P22629 37-163 limits assumed): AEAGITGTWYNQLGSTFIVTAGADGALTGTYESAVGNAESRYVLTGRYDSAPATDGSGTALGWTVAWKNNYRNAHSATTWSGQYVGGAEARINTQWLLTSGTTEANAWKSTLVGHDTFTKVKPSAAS

## Yellow fluorescent protein with streptavidin binding peptide SA-1 inserted after Y145
  koff: 0.02 s⁻¹
